± gives the standard deviation of the averaged measurements.
What follows are sequences tested on ATP (assay: switch fluorescence ratio, 500 uM ATP over buffer (Cy3 cluster intensity, sum of 5 cycles each) (fold (ratio)); higher = stronger signal-on switching upon ATP binding; sequences stand for … in TCGTCGGCAGCGTCAGATGTGTATAAGAGACAGTTTTTTTTTTTTTTTTTTTTTTTTT…TC). Conditions: aptamer strand: ATP DNA aptamer (quencher-CACCTGGGGGAGTATTGCGGAGGAAGG + anchor), 100 nM annealed; ATP concentration: 500 uM.
Method in brief: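 The fluorescence ratio divides summed target-cycle Cy3 intensity by summed buffer-cycle Cy3 intensity for each cluster and is averaged per switch-domain sequence. Cy3-labelled switching-strand clusters on a modified Illumina MiSeq flow-cell were annealed to 100 nM quencher-labelled ATP aptamer, then imaged in selection buffer and again after 15 min with 500 uM ATP at 22 °C. Five such cycles were run, with NaOH stripping and re-annealing between them, and clusters outside 100-1000 RFU were excluded.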
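Note: ATP exposure 15 min at 22 °C before imaging.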

Sequence | switch fluorescence ratio
CCTTACCTGT | 1.07 ± 0.065
CTTATGTATT | 0.993 ± 0.019
ACCCGGGGTC | 1 ± 0.053
GATGTGAAAG | 0.9638 ± 0.003
ATGTGGGGGG | 0.992 ± 0.039
CATGTATAGG | 0.987 ± 0.032
TACTAACCAT | 1.12 ± 0.066
TTGGAGTATA | 1.93 ± 0.28
GTCAATTGAT | 0.9924 ± 0.0074
TCATATTCTA | 0.9849 ± 0.0019
CGGCGCTTCT | 1.1 ± 0.028
CGGGTAGAAG | 0.971 ± 0.046
TTTTTAGACG | 0.981 ± 0.057
TTGATGCAA | 1.07 ± 0.028
CACAGGGGAC | 1.11 ± 0.05
TAGAAGGGAT | 0.987 ± 0.016
TGCTTGTATT | 1.01 ± 0.027
TCGGCTATGG | 1.01 ± 0.011
AGGAACTTTT | 1.42 ± 0.56
CCTGTAGTTG | 1.04 ± 0.037
TAAGCGGCGA | 0.973 ± 0.013
ATTTGGCGT | 1.01 ± 0.018
GGCGTGTGCG | 0.98 ± 0.039

Sequence | switch fluorescence ratio
ATGCATCGGG | 0.9974 ± 0.0049
TAGGGGCGGG | 0.971 ± 0.025
TTTTGGTCAA | 1.02 ± 0.037
TAAGGTAACG | 1.05 ± 0.12
GGTTGTGGTT | 0.998 ± 0.031
CCTGGCGGCT | 1.06 ± 0.018
TATGGTCTTA | 0.987 ± 0.021
ATGGGCGGGT | 1 ± 0.035
CACTTCTTAT | 0.973 ± 0.021
TTCAAGGGGT | 0.994 ± 0.025
AGGCTCATAG | 0.96982 ± 0.00072
GATGGTTAGA | 0.998 ± 0.036
TTTTCGATTG | 1.01 ± 0.041
TGTGGAGAGC | 0.999 ± 0.038
TCCATATGCT | 0.9941 ± 0.0093
GTGATTTTTT | 1.01 ± 0.019
GACAGGGGAG | 1 ± 0.018
GTGTTTAAGC | 0.978 ± 0.012
GAACGTCTAC | 1.28 ± 0.056
GGATGACCTA | 0.976 ± 0.021
ACTCGGTTTG | 0.949 ± 0.067
TGGGTTTTAT | 0.9954 ± 0.0094
TCGTCCGGCG | 0.96503 ± 0.00055

Sequence | switch fluorescence ratio
CGGTTGCTAG | 0.997 ± 0.042
GGGGTTCACC | 0.957 ± 0.023
TGGTCTTGTA | 1.04 ± 0.021
AAGTTGGATG | 0.977 ± 0.019
AACAGGACGC | 1.08 ± 0.1
CTCGGGATGG | 1.74 ± 0.98
GGGGGTAGCT | 1 ± 0.017
TGGTTACGCT | 1.028 ± 0.0084
AGTGATGTGG | 1 ± 0.024
AAGGGGATTG | 0.986 ± 0.042
GTTTCTGGAT | 0.98 ± 0.032
CGAGGGGCCA | 1 ± 0.027
ATGTTTTCTT | 0.998 ± 0.016
TACTTAAGTT | 1.01 ± 0.019
AGTTTTGCCT | 0.981 ± 0.032
AATTGTTGCT | 0.99301 ± 0.00023
ACGAGCCTAG | 1.33 ± 0.058
TCATGACCCA | 1.03 ± 0.018
GTGTTAGGCT | 0.978 ± 0.012
GAGCTTCTAG | 1.03 ± 0.015
CCCTGTCATC | 2.1 ± 1.4
CAGGGGCCGG | 0.978 ± 0.018
TGAAAGGGGA | 1.03 ± 0.054

Sequence | switch fluorescence ratio
AGGGTTAGGG | 1.02 ± 0.03
CGTGGTGGGG | 0.992 ± 0.015
TAAGATGGGG | 0.9623 ± 0.0054
GAGGGTGGGC | 1.03 ± 0.09
TTTTATTCGG | 0.9614 ± 0.0095
AAGGGCGGAT | 1.02 ± 0.021
AGGGTTAGTT | 1.01 ± 0.013
GATATGGGGG | 1.01 ± 0.03
TTAGTATTGG | 1.02 ± 0.019
TATCTTTCGG | 0.997 ± 0.021
TGAAAACGGT | 1 ± 0.035
TAGTCGTTTC | 1.02 ± 0.035
AGACGTCACT | 1.77 ± 0.12
CTTGTTTGGC | 1.02 ± 0.045
CGGGGGTGGG | 1.01 ± 0.047
CGGTAGGATG | 0.971 ± 0.011
TGAAATTCTT | 1.012 ± 0.0094
TAGGATTGGC | 1.04 ± 0.018
CGCAGTTATT | 1.08 ± 0.014
AGGGGTGGTA | 0.981 ± 0.043
GTTGGGTATT | 1.01 ± 0.021
GGAGTTATAA | 1.05 ± 0.034
GGTAGATTGG | 0.961 ± 0.015

Sequence | switch fluorescence ratio
GCTGAACTTC | 0.9804 ± 0.0089
CACAGTGTCA | 1.01 ± 0.027
GAACCATGTT | 0.977 ± 0.014
TAGGTCATTG | 0.995 ± 0.025
TGTTTTTTTC | 1.06 ± 0.04
ATAATTTGAT | 0.983 ± 0.023
TAGGAGGTTT | 1.067 ± 0.0013
CATGCATGTT | 1.01 ± 0.029
TATTGTAATG | 1.04 ± 0.0081
GCGTTTAGGG | 1.03 ± 0.054
ACCCAAACAA | 1.06 ± 0.028
TATTGGCTAA | 0.987 ± 0.034
AGCTTGATTT | 1.01 ± 0.039
AGAATTTAAA | 0.992 ± 0.032
TGTGCGACGG | 0.989 ± 0.021
TAACAGTTAA | 1.03 ± 0.027
CTGGAAATTT | 1 ± 0.027
TCCACATCAA | 1.197 ± 0.0086
CGAGGGGGGG | 1.01 ± 0.025
ATTTGTTGTG | 1.01 ± 0.041
ATCGGCGGTG | 0.986 ± 0.025
CCATTCTTGT | 1.04 ± 0.022
GATTTATTTA | 0.993 ± 0.015

Sequence | switch fluorescence ratio
GTGAGAGGGT | 0.998 ± 0.029
TTGGGTTGGT | 1.01 ± 0.049
TATCGGAGAG | 0.9835 ± 0.0016
TTTTTGAGTA | 1.02 ± 0.03
GGTAAGTAGG | 1.03 ± 0.042
TCTTCGGCGA | 1.46 ± 0.16
TGTTTTAGGG | 0.993 ± 0.035
TTTTCAGGCG | 1 ± 0.07
GAATTTGATT | 1.02 ± 0.025
TGCATTTGGA | 0.978 ± 0.015
TCATGAACAT | 1.001 ± 0.0082
GTTTTATGAT | 0.967 ± 0.016
GGGGCGTCTG | 1.04 ± 0.06
GATGATGGCG | 1.05 ± 0.073
AGCAGGGAGC | 1.01 ± 0.021
TATTAACGTA | 1.08 ± 0.022
AAGAAGCTGA | 0.972 ± 0.019
GTGCGAAATC | 1.25 ± 0.033
TTTAACCGTA | 1.02 ± 0.023
TTTGAACTTC | 1.27 ± 0.38
GGGCATATGG | 1.05 ± 0.015
GTTAGGTAGC | 0.997 ± 0.011
TTGGGTACGT | 1.02 ± 0.026

Sequence | switch fluorescence ratio
CAGGATACGC | 1.21 ± 0.34
AAAGAGTTCA | 1 ± 0.035
TTCAGGGTTT | 1.5 ± 0.9
TATTTAACTT | 1.014 ± 0.005
ATTTTTGTCA | 0.985 ± 0.015
GATTCCGGAC | 1.032 ± 0.0054
TAAGGGGGTA | 0.992 ± 0.039
AACAGCTGTA | 1.05 ± 0.062
TGTTGATTGT | 0.983 ± 0.013
TGAGGGGCGG | 0.998 ± 0.039
GTCCACCTAC | 1.38 ± 0.015
GAGGGGAACC | 0.992 ± 0.032
GACGGCGTTC | 1.008 ± 0.0058
TGGGTAACGG | 0.999 ± 0.0039
ATTGTTTTAC | 1.02 ± 0.014
TTGTATCAGT | 1.01 ± 0.024
TTCATGGAGT | 0.983 ± 0.028
ACGTATTACA | 1.83 ± 0.87
AGTAGGGGG | 1 ± 0.056

Source: the supplement of paper PMC10126150
